The nature of this data set: protease stability score; higher = more stable; yeast display proteolysis, trypsin and chymotrypsin.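 Also: relative to predicted unfolded state with 0 unfolded-like and 1 meaning tenfold more protease.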
In turn, “GDSEKDAERAIDIFLDTVRTGDERLIHELLDPTTILQVGDKQFHGREEADKWWHELLRKLGHTNIEMEVRDMKVQGDKVHLDTELRFNGRSTRIHVVIIKVNGRWLIEHIEIK” came in with a protease stability score of 1.23.
To “GEDEHLAKRLLDLLIELFHTGDWDFISMLADPHVKLNVNGVQYHGRHDVTKLVHDEAEELRVHIQIHKVDWVGDKVHVDTRLVVNIDGQEHRTKTHIDMIVVNGRLNSMRIEIR” belongs 1.19; to “GEDKELARKAVEEELESLLTGDEDRLKELIDPHTKVFINGREEIGMEALEDVLKKLGFKHIKVHHFDIRVQGDKVKNDLRGIFHVNGKDIDTQLIIISLKYNGQWFNHSLEWRTR”, 0.595.
To “GEEDEEFSKLMDETVKSLQTGDETHLKKLLDPNVILHVGDKEFHGRERAIDWYRHLRIHDMTIHHWEIQGDKAHVDGKLHVEVDGQHYDAKLHIVLEKINGQWYITSIHYK” belongs 2.06.
As for “GEEHELTERAIEHFVDIWKTGDEDSLEENIDPHARIDFNGQQLHGREEMYRFMHKVNRQIKGIRLSFKYIDLRIYGDKVIVHNDGVVRVGDKVHDEQTKLEMRKVDGRWLFKSVTVFVL”, the protease stability score amounted to 1.05.
In the case of “GEEQEDIKKFLEDDMEAWSTGDFRQLKRNMDPHVRIVINGRHLHGMETFEHFFEHLRVRITSLELKRVEAVGDKVSYDGELDFELDYNGRRLSQRTRVEFRIEKINGRWILHYVIFR”, the protease stability score turned out to be 0.329.
“GEHEDYILHIVDLFIHNILTGDWDAILKLMDPDVRFEIEINGRTIEIHGWEQIKRIMDEIKERADHLHIEIRDKFSVNGVAFFEGTIEIRVGDKRHREDVEIILFVVDGRIKIIRKRDV” had a protease stability score of 1.99.
Under “GEKEELSRLALHLWFRDYHTGDEDSAHRLLDPNVRLHVGDKHFVGRERFTRFWHEVYRELRIDDYILHSEDIQGDKIHMDGRIDGVVGDKREDFRTEIHLIWIDGKLHSEKRDKE” stands 0.902; under “GELEKLATTIVRLWVRHWYTGDEESSMRLMDPNARIIINGKEMHGRELYVHFLRRVLEHIRPESVDIEEVKIQGDYAHIDITEHRRIGDKEVTFRTEVSIIVINGKVTEVHMEIR”, 1.7.
To “GEMEKLLFKIFEEWMKLRKTGDEDVIAHLADPDYRWDVNGVDLHGMEHVKEFTEEFLRHLGFDHQEYRIRRFDHDGNKLRADTEVRIVVNGVDITHRTHIIIVQFNGKVKSVKERIR” belongs 0.292; to “GENEQLIEEAVKMFMDIHHTGDWRDVHHLLDPHMRLDVNGVDYHGRDLWVRIAKEISEHARTEVRIRHLEIQGDKVIVHGQIILRIGDKTHVIDTRHIIIKINGRWKLHSVDIH”, 1.32; to “HDDEEIIKREIDFFLEVLLTGDWRHLNELLDPHARLEIGDKRFHGREAVIKEIRTFIERFGVDHSEIDTVNIQGEKAEYKFTLKVGDKRHELHITMTKINGRWYITEVKFS”, 1.79.
Under “HDDHESADKFIREEIEYQRTGDWHRFEELLDPDVRLEQGNYHAHGREEVSTIFLMHLTRVKNMRMEVTRMEIINGRLSLHLKLDFNGREFHFSTIVQKVNGKWIIKAEHFI” stands 0.507; under “HDDQKESHEWAKLFEDWLQTGDEESILKQLDPHVRIEIGDKRNHGREELHRYEHEFWTKFGIDHIHIDDIRVQGEKVHLETTVIVNGRKFQQIIIVVFIDGVMQRLVIEDR”, 0.798; under “HDEDEESRNAVEEYWRVLHTGDEKRWHELADPNVRNEIDGRTYHGRESFRFLFHLHEEKFKNVKIELHSVNIQGDKIKMLIEIKYGDKNIHMIIIAQKIDGKWKNERIHVFHH”, 0.744.
In turn, “HDEEKHDREYVEEMLEVWLTGDFDRIMHLFDPNARQEVNGVDIVGRERLHEFNRRWEEDMGFDHSHTHHVEVVNGRVHSDTRVHFNGREMETHLDLRVVNGRIKSIRVSYN” had a protease stability score of 0.094.
Under “HDEERDSKIASSIMVETWKTGNEHLMERMFDPHTRSHVGDKEIHGMEEFIRWLYELLRKIKNARFTVEDTDLINGVVVVITRLHVGDKDFLLTFFVEKFNGRWHLRSFEMK” stands 0.772; under “HDEERELTIVSERIIKIFETGDWEELHKMADPRVKVIVNGRETHGMERYVKHLEQIRTILTNIHLHDVDLQGDFLHIDLEARGRILVNGRDTTFNWELKITIDKFDGRWRMKRINVN”, 2.16; under “HDEEREVHEWIKLIEHHLRTGDEDAVRKLVDPTVRNDINGVDVVGRREDVERLHQADHIDIELKHVEIQGDKLHIDGVLILDFNGRHFYFRMKIIASKYNGVWKIKEKRVH”, 0.999.
Under “HDHDKHLDRLEELMLRWWKTGDWDKILKYADPHTRSDVNGKEYHGRESMVRAFEHVLKMLGIDVVYDQSHHLQGEKAKFHQESRVGDKRVEVIIIITIVDGRVTEFEVEVHHN” stands 0.722.
For the sequence “HDKEHLSEYLLDLTEYLIRTGDFKLMLKMADPHVRNHIIIGEFELEYHGWHVYIHWLEKVLRRFGVDHVHVTHRNAQGDKVEMDTHLEVNGRRHDVDQHWVYINGRIEHVRFRIR”, the protease stability score was 0.794.
To “HDKEKEDKEWIKRLLDTIETGDPEQFSHLADPNVKAEFENHDSVGMEEVFKILEHLRIDHVRMKDMRIQGDWVHLITEMDGTINGKKIILKSRIIALKVNGRWVLTSTSLK” belongs 1.42; to “HDLEETVRDMIHLLMTFVETGDEDSVHRLIDPHVRVEVGDKLTHGRQWVHLLIKRADVLEIRIEDMRIVGDKALIVSKYHIRIDGVFIVYNIDIYAEKIDGRWVTTEIKVD”, 1.71.
Under “HDLEKFLDHFFEKLMKELETGDEQSWRRLADPRARLHINGKDFHGREFEHELRNKWGVSRVEEKLDSRDVIGNKLILDGSLSVNGKEIKAILFVQKVDGKWEFKEIEVH” stands 1.34; under “HDLEKLVKFWYELWLRLLLTGDEEIFSHLADPNARLEVDGVEFVGREQVLKDLKRRMEEMRLTSMIITHVDWQGEKNRTEGITHGRINGVDITSETHLVLVIVNGRIRSIRIEIR”, 1.54; under “HDMEERSKHVHHIILRSLRTGDEDAYERLADPDTRLHVGDKNIHGRESIRNIWREILERIPNMRIELELEDSEIVGDYIYLKINLRMNFDGREVEHEIRIVSLKINGRWVEKSVHFR”, 0.591.
To “HDQDESAKWVIEVLIRASYTGDFDMFIKYFDPNAKSLIDGKTFHGREDLKRHMDRFDHITHVRFHLRDRKMVGDKLIIHGQLEVHGYQGDWEIHMTRDVHIILRKVDGRWHIEELRLE” belongs 2.18.
“HDREKIAITFLKFLIHWHLTGNEDHLRENIDPHVRIRIHIDGKNNHLVGMEDWYKWVREELERADHLELRLDDVDVQGDKLHSDITNIIRIDGKTIVRKVHVHLDVVNGQVKSIEIEIR” registered a protease stability score of 2.54.
“HDREKLMEELVKNWIHLLKTGDEDQLHRLLDPHAKWDINGRELHGMEHINRRISEWRIEFNERHVEVIGEKIHIEGDLRVEIDGRRDEFHSEIELVIVNGRVKEIIVREG” showed a protease stability score of 0.895.
In the case of “HDRKREIDHVLKLWINHFKTGDEDFHERNMDPHVRLHQGNYETHGREEVKKFLKRLFDEFGADHIHIRDYRIDVQGDKITIVMEVEIRVGNYRIDIEFILYVAKVDGKWHVHHYEIRNH”, the protease stability score turned out to be 1.06.
Sequence “HDRNEIIREALRILIHSILTGDEDHLREFADPHVKSDINGQEFHGREVFFMWLLHMRIQTVTIKHVDVQGEKARVYSSIHGDVDGQRTEYHTEIFSQKVNGRWIIRTIRVE” gave a protease stability score of 1.16.
Turning to “HEDDELLRQNVKVLLDMVETGDEHTLENMLDPHVRFEAENHHHHGRENLIRALKELLTRLGVKHWRSFEVERIDIQGDFIFLDTVFIMEVDGRKRKIKIHIVARKINGRWLIESIRLD”, the protease stability score came to 1.48.
To “HEDDEMKKKWFEEWERRIHTGDEEEINKLADPHVRLEIGDKTRHGREEFTRYLWEFLYEFGANHVEIRYEEIRIINGVVHIRSRIHIHVDGRHIHLETHLIVFKFDGQWRLHTLHYK” belongs 0.872; to “HEDDHAVRKTIEDLLRSITTGDFELYSKLADPNTRFNIDGVNDVGMEIWVEKAIQHGWKVRHFHIRDVEVQGDKIDVDLKIDEDVNGRRIDIHVLLIIRKIDGRWILESVEHV”, 1.64.
Under “HEDDHQAERITHITMHAILTGDWRRMEELLDPHYRIEFENHENIGRERVNKVLIDLGIRNEIEIKRIRFQGDFVEIDGKLKIDVGDKHIEIKVRLFYVKINGRWFHHHVDLR” stands 0.835; under “HEDDRIVQEHWKRLSEAWLTGDEERAKKNADPNTREVINGKELHGREEVTRLYREIRRSIEHVEIRDSRIQGDKLLIDVNMVISVIIGDKEFRIEVRVNVIMIKFDGVWHLETVHFH”, 0.187.
In turn, “HEDEDILREALKTLRHSIQTGDEDLLRELMDPNVRLETEHERLHGWEYVSKFMMDLYKRYDHMEYTVHDYKVYGDFLRVDVQLDVKQGEKDDVISTHMLALKFDGKWHIKKIIIE” yielded a protease stability score of 1.56.
Under “HEDEDLLEELARKYKHHLETGDEHIIRRLVDPHVRIEQGEKKLIGREEFLRILTELLRSWGVTRFEFRIEDFRLQGDKAHMRGSVEVGDFHHDVEIVSRKIDGRWVITHYHEI” stands 0.118.
Regarding “HEDEEEMKKFIHRWENDLRTGDEESHRRLADPNTLLVVNGRRVHGMEAVLHIVREMRLHEVYIDDIRIINGRAHTELTVKGEIDGVKHWSHTHIHVTKVNGQWHIDTIRIL”, the protease stability score amounted to 0.663.
Under “HEDEEEQRLANEIFHKMIWTGDEERLKDLMDPHVRIDVNGREVHGMEEWLEHFLQFKNMKFRVHFRENRIIDGVARSRTELRIIFDGREYRIDLIVIAQKINGRWILRSIEIR” stands 1.34.
To “HEDEEHALKLTMDFLRWIYTGDEDTLNKYADPNVRLDIGDKVFHGMEFINKHMKELRFHRIHVKRFEAHVVDGKLRSHMDVRIDGNVDGRRRETDVELIFFWEKIDGRWVNTSIIIHHH” belongs 1.27.
To “HEDEEIIERILREFLHYQNTGDEDELRKLADPNVRVIQGDKHFVGREEFRRWVHEHLSQVDHVELEIEDMRIVGDFVEIRGKLHNKAEGRSIKEEVRLVLFKFDGRWTLHDVRVH” belongs 2.09; to “HEDEEISQNMMETMLRIIHTGDWHRFTELFDPHVRIEVNIGDKHLESVGREEARKWLERFKNRRTEIRDAKVRVQGDKVEIRIDGNVNVDGKEKHVEIILYIEKIDGRWLVHSVIIIIE”, 2.13.
In turn, “HEDEEIVKTFAKIRTELERTGDWETIMRLLDPHVRMDIDGVRVHGMEEVVRHIREFEEKFGVTNVQSRFRDVRIIGDKVDIHSQVHINGVEKNLHIHVEKFNGKWVITEIKIE” yielded a protease stability score of 1.28.
To “HEDEEKVKNMVRHEIQALQTGDWDHWLNLADPHVKLYIDGRINHGRHVIRFLVERFDHFRIDHYEVRSINHVDGRVRVNTQLHGQETINGVHEKHTVEVEMTIIKVNGRWYIEHLELE” belongs 1.2; to “HEDEELMKELLKRWLNMLETGDWQNLAHYADPHVRLEFDGREIHGRTEVYRVLVEFHDKIKGMTYILKHSFYVGDKIHIKGSIRIGDKEYDTEIHIIIVDGRLKEVRVEHR”, 1.98; to “HEDEELSEKWLEDILRDHETGNEHRLRELFDPDARSHVGDKKIIGREDWSRALKEFIEKFPGVRIEIRHHENDIVGDKVRLDVTIILNFNGVEHEMKVTLILRKYNGRWRIREIRIR”, 1.25.
